Experimental data from article PMC4335687 (Growth factors (Chur, Switzerland), 2014).

Molecular target: EphA2 ligand-binding domain, untagged (UniProt P29317)
Experiment: SEC

EphA2 ligand-binding domain, untagged, sequence (P29317 24-206): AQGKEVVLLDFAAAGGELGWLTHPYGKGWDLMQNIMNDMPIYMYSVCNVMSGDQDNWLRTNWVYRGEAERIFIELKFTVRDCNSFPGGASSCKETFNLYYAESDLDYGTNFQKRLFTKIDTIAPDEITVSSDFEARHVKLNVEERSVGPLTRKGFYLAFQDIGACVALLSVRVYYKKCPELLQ

B1: D2 scFv-6xHis (monomeric anti-EphA2 single-chain antibody) (scFv, V domains shown)
VH: EVQLLESGGGLVQPGGSLRLSCAASGFTFSRYWMHWVRQAPGKGLEWVSSISPYDGETNYADSVKGRFTISRDNSKNTLYLQMNSLRAEDTAVYYCARISEWYNWAVDVFDYWGQGTLVTVSS
VL: EIVLTQSPGTLSLSPGERATLSCRASQSVSSSNLAWYQQKPGQAPRLLIYGASSRATGVPDRFSGSGSGTDFTLTISRLEPEDFAVYYCQQSSSYPWTFGQGTKVEIK
stoichiometry N: 1
